{
  "source": "patent US20190201494A1",
  "about": "“COMPOSITIONS AND METHODS FOR TREATING NICOTINE WITHDRAWAL” (STC UNM, priority 2016, published 2019)",
  "key": {"[1]": {"conditions": "cited from earlier work"}, "[2]": {"tested_on": "smokers, 36 hours of smoking abstinence", "experiment": "Post-spray symptom-specific subjective ratings (0-10) of pain, burn, taste (Example 2)", "assay_type": "in vivo, human", "method": "Additional outcome measures included safety measures, i.e., post-spray symptom-specific subjective ratings and adverse events. Post-spray symptom-specific subjective ratings (0-10) of burn, pain, cough, and taste were collected after each spray round. Administration instructions were one spray in each nostril every three minutes for the total of six sprays. […] Adverse events were recorded and collected following the completion of every session as well as completion of the entire study.\n(§1) Placebo contained 8.7% NaCl. Per FDA approved protocol, the product was prepared in a biosafety cabinet of UNM Translational Radiopharmacy. Drug Preparation occurred 30 minutes before administration. […] or placebo was placed in a 10 mL amber glass bottle (Gerresheimer AG, Düsseldorf, Germany), which was capped with a 10 mg sterile nasal pump (Aero Pump GmbH, Hochheim, Germany). Assembled product was primed per manufacturer's recommendations before 0.6 ml volume was administered to study participants. In a randomized fashion, study nurse administered one spray in each nostril every three minutes for the total of six sprays of either insulin or placebo. As each spray delivers 0.1 ml of fluid, and the concentration of insulin in Novolin R is 100 IU/mL, administering six sprays delivers 60 IU of insulin.\nRandom coefficient models were constructed for analyzing study outcomes. Treatment, time, treatment by time interaction, and sequence were included as fixed effects. Time nested within subjects, and time nested within treatment nested within subjects were included as random effects. Adverse events are presented in a descriptive fashion. No adjustment for multiple tests was made; all p values are reported at their nominal level."}, "[3]": {"tested_on": "smokers, 36 hours of smoking abstinence", "experiment": "Replication crossover study: Questionnaire on Smoking Urges-Brief on Day 2 of 36 hours smoking abstinence (Example 2)", "assay_type": "in vivo, human", "description": "Results from Day 2 are presented. The main differences between Example 1 and Example 2 are: (1) parallel vs crossover design, and (2) placebo content: the parallel design placebo was normal saline, the crossover design was 8.7% NaCl. The purpose of increasing the placebo salt content in the crossover study was to maintain the blind.\nStudy participants began their first night of smoking abstinence at 20:00 prior to reporting to the inpatient unit of University of New Mexico Clinical and Translational Science Center at 11:30 the following day. During Day 1 at the hospital, participants provided a CO sample, which had to be 50% of their measurement at screening or less than 7 ppm and a negative breath alcohol test (0.00%). Additional criteria for session continuation included negative urine drug test and vitals within normal limits as described in the “Participants” section above. The study nurse evaluated the nares for abnormalities and checked POC glucose to ensure subjects were within normal limits prior to receiving spray.\nDuring Day 1, participants were administered spray at 12:40, ate lunch at 13:00 and completed appetite ratings and a snacking test. Participants ate dinner at 19:00 and lights were turned off at 21:00.\nThe following morning, participants completed Questionnaire of Smoking Urges at 7:50. Prior to this first questionnaire administration, participants provided a urine sample, which had to be negative for illicit substances, and a CO sample, which had to be either 50% lower than the value on day 1, or less than 7 ppm. An intravenous line was established at 6:45 and a baseline blood sample was drawn. Study nurse checked POC glucose and completed a nares evaluation to confirm participant was within normal limits to receive spray. Spray administration occurred at 8:00, followed by breakfast at 8:20. Post-spray Questionnaire of Smoking Urges was completed at 8:15, 8:45, 9:15, 9:45, 10:30 and 11:30. During this time blood samples were taken for additional analyses. At noon, study nurse evaluated the nares to rule out abnormality and checked POC glucose to ensure that results were within normal limits. The two sessions were separated by one week.\nUrges to smoke were rated using the 10-item Questionnaire on Smoking Urges-Brief (Cox et al., 2001. Nicotine Tob Res 3(1):7-16) that consists of 10-questions. The answers are scored from 1 (strongly disagree) to 7 (strongly agree). These questions are the bases for the two factor derived subscales. Factor 1 subscale reflects a strong desire and intention to smoke with smoking perceived as rewarding. Factor 2 subscale reflects an anticipation of relief from negative affect with an urgent desire to smoke. These two subscales were sub-analyses stemming from our main (overall) QSU-Brief analysis. Cravings were measured at −15, 0, +20, +60, +70, +80, +90 and +120 minutes from spray administration on Day 2.\nas §1\nRandom coefficient models were constructed for analyzing study outcomes. Treatment, time, treatment by time interaction, and sequence were included as fixed effects. Time nested within subjects, and time nested within treatment nested within subjects were included as random effects. […]"}, "[4]": {"conditions": "vs 8.7% NaCl placebo, scale 0-10, three spray rounds, p≤0.05"}},
  "note": "Entries after “also recorded” stand apart in the source; their conditions may differ.",
  "data": [
    {"substance": "intranasal insulin: bulk human Regular insulin (U100 Novolin R, Novo Nordisk US), 100 IU/ml, six nasal sprays delivering 60 IU", "values": [
      {"measurement": "CSF insulin levels and peripheral insulin levels after intranasal administration", "setting": "[1]; humans", "value": "increases CSF insulin levels without changing peripheral insulin levels"},
      {"measurement": "Time to reach the CSF", "setting": "[1]; intranasal route", "value": "within minutes"},
      {"measurement": "“taste” rating, interaction with treatment, b", "setting": "[2]; SE(b)=0.10, z=−0.75, p=0.45, not significant", "value": "−0.07"},
      {"measurement": "“pain” rating, treatment×spray number, b", "setting": "[2]; SE(b)=0.16, z=−0.47, p=0.63", "value": "−0.07"},
      {"measurement": "“burn” rating, interaction with treatment, b", "setting": "[2]; SE(b)=0.17, z=1.23, p=0.22, not significant", "value": 0.21},
      {"measurement": "“pain” rating, treatment, b", "setting": "[2]; SE(b)=0.31, z=−1.17, p=0.24", "value": "−0.36"},
      {"measurement": "“burn” rating, treatment, b", "setting": "[2]; SE(b)=0.43, z=−2.34, p≤0.05", "value": "−1.01"},
      {"measurement": "Subjective spray rating of “pain”, effect of treatment", "setting": "[2]; vs 8.7% NaCl placebo, scale 0-10, three spray rounds", "value": "No group differences were detected"},
      {"measurement": "Subjective spray rating of “burn”, effect of treatment", "setting": "[2]; [4]", "value": "Main effect of treatment was significant; also recorded: There was an effect of treatment"},
      {"measurement": "Subjective spray rating of “taste”, effect of treatment", "setting": "[2]; [4]", "value": "Main effect of treatment was significant; also recorded: there was an effect of treatment"},
      {"measurement": "Subjective spray rating of “burn”, effect of treatment", "setting": "[2]; vs 8.7% NaCl placebo, scale 0-10, three spray rounds, p≤0.05, listed as Intranasal insulin", "value": "notable burning sensation"},
      {"measurement": "Smoking urges (Questionnaire of Smoking Urges) compared to placebo, replication study", "setting": "[3]; 60 IU intranasal, crossover, morning of Day 2, 36 hours abstinence, p≤0.05", "value": "decreased significantly; also recorded: This finding was replicated"},
      {"measurement": "QSU-Brief Factor 2 compared to placebo, replication study", "setting": "[3]; 60 IU, crossover, Day 2, p=0.18", "value": "no effect; also recorded: not Factor 2 scale"},
      {"measurement": "QSU-Brief Factor 1 compared to placebo, replication study", "setting": "[3]; 60 IU, crossover, Day 2, p≤0.05", "value": "significantly decreased; also recorded: the effect was driven by intranasal insulin's effect on Factor 1"},
      {"measurement": "QSU-Brief Factor 2, effect of treatment, b, replication study", "setting": "[3]; SE(b)=0.87, z=1.34, p=0.18", "value": 1.16},
      {"measurement": "QSU-Brief Factor 1, effect of treatment, b, replication study", "setting": "[3]; SE(b)=1.15, z=2.16, p≤0.05", "value": 2.49},
      {"measurement": "Smoking urges, effect of treatment, b, replication study", "setting": "[3]; SE(b)=1.91, z=1.92, p≤0.05", "value": 3.67}
    ]}
  ]
}
